Experimental data taken from PMC12881670, “Investigation into ligand selectivity and bias at the formyl peptide receptor family” (The Journal of Pharmacology and Experimental Therapeutics, 2025).
Where two headings read alike, the source gives them in different places. Blank lines part the entries; values can stand above or below the binder they belong to. Where no end group is shown, it is not given here. The star is where a group is joined. For = O=C*

What was measured:
[1] = biological target: T1, FLAG-tagged human FPR2 (Hs_FPR2) (human, UniProt P25090 1-351); experiment: cell-based or functional assay
T1 sequence (looked up): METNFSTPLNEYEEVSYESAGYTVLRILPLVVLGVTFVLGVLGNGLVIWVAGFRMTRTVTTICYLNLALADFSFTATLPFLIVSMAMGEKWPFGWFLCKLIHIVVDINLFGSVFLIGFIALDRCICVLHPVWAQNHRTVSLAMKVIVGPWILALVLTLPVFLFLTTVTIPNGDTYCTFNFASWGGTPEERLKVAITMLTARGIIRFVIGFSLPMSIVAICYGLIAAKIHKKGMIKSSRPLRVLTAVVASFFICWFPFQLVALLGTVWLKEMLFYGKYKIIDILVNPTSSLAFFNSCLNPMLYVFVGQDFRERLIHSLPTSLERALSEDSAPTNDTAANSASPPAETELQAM

[2] = biological target: T2, FLAG-tagged human FPR1 (Hs_FPR1) (human, UniProt P21462 1-350); experiment: cell-based or functional assay
T2 sequence (looked up): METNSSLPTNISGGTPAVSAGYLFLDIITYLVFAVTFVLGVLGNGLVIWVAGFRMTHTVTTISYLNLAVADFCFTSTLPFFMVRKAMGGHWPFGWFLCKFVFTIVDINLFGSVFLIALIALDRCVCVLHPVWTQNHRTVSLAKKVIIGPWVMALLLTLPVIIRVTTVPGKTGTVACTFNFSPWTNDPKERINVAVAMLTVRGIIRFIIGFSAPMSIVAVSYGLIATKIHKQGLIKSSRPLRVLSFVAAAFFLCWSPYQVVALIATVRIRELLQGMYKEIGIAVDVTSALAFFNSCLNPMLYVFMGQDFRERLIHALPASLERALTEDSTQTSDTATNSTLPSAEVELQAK

[3] = biological target: T3, FLAG-tagged mouse Fpr1 (Mm_Fpr1) (mouse, UniProt P33766 1-364); experiment: cell-based or functional assay
T3 sequence (looked up): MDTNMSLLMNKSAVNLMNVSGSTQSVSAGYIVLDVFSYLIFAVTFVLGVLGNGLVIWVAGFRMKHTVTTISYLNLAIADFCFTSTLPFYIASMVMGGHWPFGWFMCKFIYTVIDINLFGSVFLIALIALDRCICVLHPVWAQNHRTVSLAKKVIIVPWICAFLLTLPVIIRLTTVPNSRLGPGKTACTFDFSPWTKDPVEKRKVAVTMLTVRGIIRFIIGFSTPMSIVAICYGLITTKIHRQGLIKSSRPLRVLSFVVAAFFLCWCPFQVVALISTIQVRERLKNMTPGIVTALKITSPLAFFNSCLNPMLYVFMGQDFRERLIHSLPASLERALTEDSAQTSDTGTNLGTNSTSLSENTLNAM

[4] = biological target: T4, FLAG-tagged mouse Fpr2 (Mm_Fpr2) (mouse, UniProt O88536 1-351); experiment: cell-based or functional assay
T4 sequence (looked up): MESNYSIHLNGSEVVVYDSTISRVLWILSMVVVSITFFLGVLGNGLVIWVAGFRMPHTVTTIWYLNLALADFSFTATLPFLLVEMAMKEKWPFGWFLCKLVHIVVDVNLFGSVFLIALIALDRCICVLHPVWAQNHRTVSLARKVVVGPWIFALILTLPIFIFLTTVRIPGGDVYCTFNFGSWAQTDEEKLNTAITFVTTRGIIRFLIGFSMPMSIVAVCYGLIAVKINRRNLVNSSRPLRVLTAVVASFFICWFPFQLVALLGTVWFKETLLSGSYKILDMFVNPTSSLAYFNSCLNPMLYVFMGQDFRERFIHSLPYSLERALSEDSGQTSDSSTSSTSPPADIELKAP

[5] = biological target: T1, FLAG-tagged human FPR2 (Hs_FPR2); experiment: cell-based or functional assay; remark: listed apart in the source
[6] = biological target: T2, FLAG-tagged human FPR1 (Hs_FPR1); experiment: cell-based or functional assay; remark: listed apart in the source
[7] = biological target: T3, FLAG-tagged mouse Fpr1 (Mm_Fpr1); experiment: cell-based or functional assay; remark: listed apart in the source
[8] = biological target: T4, FLAG-tagged mouse Fpr2 (Mm_Fpr2); experiment: cell-based or functional assay; remark: listed apart in the source
[9] = biological target: T5, FLAG-Hs_FPR2 C-terminally fused to Renilla Luciferase 8 (human, UniProt P25090 1-351); experiment: cell-based or functional assay
T5 sequence (looked up): T1 sequence (looked up)

[10] = biological target: T6, FLAG-Mm_Fpr2 C-terminally fused to Renilla Luciferase 8 (mouse, UniProt O88536 1-351); experiment: cell-based or functional assay
T6 sequence (looked up): T4 sequence (looked up)

[11] = biological target: T7, FLAG-Mm_Fpr1 C-terminally fused to Renilla Luciferase 8 (mouse, UniProt P33766 1-364); experiment: cell-based or functional assay
T7 sequence (looked up): T3 sequence (looked up)

[12] = biological target: T8, FLAG-Hs_FPR1 C-terminally fused to Renilla Luciferase 8 (human, UniProt P21462 1-350); experiment: cell-based or functional assay
T8 sequence (looked up): T2 sequence (looked up)

[13] = biological target: T5, FLAG-Hs_FPR2 C-terminally fused to …; experiment: cell-based or functional assay; remark: listed apart in the source
[14] = biological target: T6, FLAG-Mm_Fpr2 C-terminally fused to …; experiment: cell-based or functional assay; remark: listed apart in the source
[15] = biological target: T7, FLAG-Mm_Fpr1 C-terminally fused to …; experiment: cell-based or functional assay; remark: listed apart in the source
[16] = biological target: T8, FLAG-Hs_FPR1 C-terminally fused to …; experiment: cell-based or functional assay; remark: listed apart in the source
[17] = biological target: T1, FLAG-tagged human FPR2 (Hs_FPR2); experiment: flow cytometry on cells; competition binding: HEK293 cells stably expressing the receptor, lifted in PBS, on ice 90 min with 10 nM K(5/6-FAM)-WKYMVm and increasing unlabeled ligand; mean fluorescence of 5000 cells as % of that without competitor; One site-Fit logIC50
[18] = biological target: T2, FLAG-tagged human FPR1 (Hs_FPR1); experiment: as above
[19] = biological target: T3, FLAG-tagged mouse Fpr1 (Mm_Fpr1); experiment: as above
[20] = biological target: T4, FLAG-tagged mouse Fpr2 (Mm_Fpr2); experiment: as above
[21] = biological target: T4, FLAG-tagged mouse Fpr2 (Mm_Fpr2)
[22] = biological target: T4, FLAG-tagged mouse Fpr2 (Mm_Fpr2); remark: listed apart in the source

- ERK1/2 phosphorylation (Western blot): Emax (% of 1 μM WKYMVm) [1]: 125%
- ERK1/2 phosphorylation (Western blot): Emax (% of 1 μM WKYMVm) [2]: 141%
- ERK1/2 phosphorylation (Western blot): Emax (% of 1 μM WKYMVm) [3]: 118%
- ERK1/2 phosphorylation (Western blot): Log EC50 (M) [3]: -7.08 log M
- ERK1/2 phosphorylation (Western blot): Emax (% of 1 μM WKYMVm) [4]: 128%
- ERK1/2 phosphorylation (Western blot): Log EC50 (M) [4]: -7.91 log M
- receptor internalization (flow cytometry): Emax (% of 1 μM WKYMVm) [5]: 82.3%
- receptor internalization (flow cytometry): Emax (% of 1 μM WKYMVm) [6]: 101%
- receptor internalization (flow cytometry): Emax (% of 1 μM WKYMVm) [7]: 99.4%
- receptor internalization (flow cytometry): Log EC50 (M) [7]: -6.29 log M
- receptor internalization (flow cytometry): Emax (% of 1 μM WKYMVm) [8]: 75.6%
- receptor internalization (flow cytometry): Log EC50 (M) [8]: -6.96 log M
- BRET of receptor-RLuc8 with Arrestin 3-YFP: Emax (% of 1 μM WKYMVm) [9]: 94.8%
- BRET of receptor-RLuc8 with Arrestin 3-YFP: Emax (% of 1 μM WKYMVm) [10]: 94.3%
- BRET of receptor-RLuc8 with Arrestin 3-YFP: Log EC50 (M) [10]: -6.59 log M
- BRET of receptor-RLuc8 with Arrestin 3-YFP: Emax (% of 1 μM WKYMVm) [11]: 83.1%
- BRET of receptor-RLuc8 with Arrestin 3-YFP: Log EC50 (M) [11]: -5.56 log M
- BRET of receptor-RLuc8 with Arrestin 3-YFP: Emax (% of 1 μM WKYMVm) [12]: 75%
- BRET of receptor-RLuc8 with Venus-mGsi: Emax (% of 1 μM WKYMVm) [13]: 79.2%
- BRET of receptor-RLuc8 with Venus-mGsi: Emax (% of 1 μM WKYMVm) [14]: 87.9%
- BRET of receptor-RLuc8 with Venus-mGsi: Log EC50 (M) [14]: -6.49 log M
- BRET of receptor-RLuc8 with Venus-mGsi: Emax (% of 1 μM WKYMVm) [15]: 37.5%
- BRET of receptor-RLuc8 with Venus-mGsi: Log EC50 (M) [15]: -5.68 log M
- BRET of receptor-RLuc8 with Venus-mGsi: Emax (% of 1 μM WKYMVm) [16]: 44.1%
- Max Comp (%) [17]: 99.8%
- Max Comp (%) [18]: 94.9%
- Log IC50 [19]: -5.55 log M
- Max Comp (%) [19]: 85.4%
- Log IC50 [20]: -6.23 log M
- Max Comp (%) [20]: 100%
B1: WKYMVM (peptide)
peptide: WKYMVM
notes: synthetic hexapeptide, all L residues; also called L-enantiomer of WKYMVm; source: bought: Tocris

- ERK1/2 phosphorylation (Western blot): Emax (% of 1 μM WKYMVm) [21]: 169%
- ERK1/2 phosphorylation (Western blot): Log EC50 (M) [21]: -6.96 log M
- receptor internalization (flow cytometry): Emax (% of 1 μM WKYMVm) [22]: 43.9%
- receptor internalization (flow cytometry): Log EC50 (M) [22]: -8.24 log M
Binder: For-MTPMRKINPLMKLIN [MCT-2 (Formyl-… from Cytochrome b)]
